Results on one substance are retold here after patent US4327178A, “Urinary kallikrein assay: specific substrates and assay method” (University of Miami, priority 1981, dated 1982).

This data set deals with T1, N=C(N)NCCC[C@H](NC(=O)[C@H](Cc1ccccc1)NC(=O)[C@@H]1CCCN1)C(=O)NCc1ccccc1.
T1 construct: dialyzed or gel-filtered human urine in the general A1 assay
Description: Km and Vmax of substrates with purified human urinary kallikrein (Lineweaver-Burk double reciprocal plot). In kind it is biochemical. The following applies: other: 62.5 ng purified enzyme, 0.05 M tris-HCl pH 9.5, 37° C., 15 minutes. The procedure:
The double reciprocal plot method of H. Lineweaver and D. Burk (J.Am.Chem.Soc. 56, 658 (1934)) was used to estimate Km and Vmax for these substrates. Purified human urinary kallikrein prepared as described by Oza, N. B. and Ryan, J., supra, was used in this study. Reactions were conducted at 37° C. for 15 minutes with 62.5 ng of enzyme and the indicated amount of substrate, in 0.05 M tris-HCl pH 9.5. Reactions were terminated by the addition of a nine-fold excess of 0.1 N NaOH. The ^3 H-labeled product was separated from substrate by extraction with an equal volume (1 ml) of toluene. A 0.5 ml aliquot of the toluene phase was transferred to a scintillation vial containing a toluene-based scintillation fluid and counted. Results for H-ProPheArg-[^3 H]-benzylamide are shown in FIG. 1, and for H-ProPheArg-[^3 H]anilide in FIG. 2. The units of l/v were nmol^-1 min. Units of l/S were μmole^-1.liter.

What is called Km is the substrate concentration at which the rate is half of its maximum. In general, Vmax refers to the top rate of the reaction or transport when substrate is in excess. For human urinary kallikrein (Homo sapiens), the Km came to 3.0 µM and the Vmax is 0.88 mmol/min/mg.
